This is an account of results in the supplement of paper PMC5998384.

Data set [1] has as its system HeLa Kyoto. Nature of the data set: thermal stability score vs G1/S (z-score of summed log2 fold changes over temperatures); higher = more thermally stable than in G1/S.
Data set [2] relates to HeLa Kyoto. Briefly: solubility in G1/S (NP-40 vs SDS abundance) (log2 ratio); higher = more soluble. The settings on record: cell cycle stage: G1/S.
The subject of data set [3] is HeLa Kyoto. Nature of the data set: melting temperature (median over replicates), in situ; higher = more thermally stable.
Data set [4] has as its system HeLa Kyoto. Nature of the data set: solubility change mitosis vs G1/S (difference of NP-40 vs SDS log2 ratios) (log2 ratio difference); higher = more soluble in mitosis.
[5] abbreviates: cell cycle stage: early G1 (4.5 h after nocodazole release).
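For melting temperature (median over replicates), in situ in this document: HeLa Kyoto cells synchronized by double thymidine or nocodazole block, proteins quantified by TMT10plex mass spectrometry, three independent biological replicates.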
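For solubility change mitosis vs G1/S (difference of NP-40 vs SDS log2 ratios) in this document: synchronized HeLa Kyoto cells (double thymidine block for G1/S, nocodazole release for mitosis), protein amounts in NP-40 versus SDS lysates quantified by mass spectrometry, three biological replicates.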
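For solubility in G1/S (NP-40 vs SDS abundance) in this document: HeLa Kyoto cells arrested at G1/S by double thymidine block, proteins quantified by TMT10plex mass spectrometry in mild NP-40 versus SDS extracts, three biological replicates.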
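For thermal stability score vs G1/S (z-score of summed log2 fold changes over temperatures) in this document: synchronized HeLa Kyoto cells, proteins quantified by TMT10plex mass spectrometry, three biological replicates, mitosis taken 0.5 h after nocodazole release, G1/S directly after double thymidine block.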

Sequence of LSM3 (chain, as listed by the source): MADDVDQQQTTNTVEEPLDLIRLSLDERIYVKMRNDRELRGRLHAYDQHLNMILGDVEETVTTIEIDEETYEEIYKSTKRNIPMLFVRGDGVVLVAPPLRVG

In the case of “MLALISRLLDWFRSLFWKEEMELTLVGLQYSGKTTFVNVIASGQFSEDMIPTVGFNMRKVTKGNVTIKIWDIGGQPRFRSMWERYCRGVNAIVYMIDAADREKIEASRNELHNLLDKPQLQGIPVLVLGNKRDLPNALDEKQLIEKMNLSAIQDREICCYSISCKEKDNIDITLQWLIQHSKSRRS [ARL8B]”, the thermal stability score is -1.93 with HeLa Kyoto [1] (setting [5]) and -1.85 with HeLa Kyoto [1] (cell cycle stage: mitosis). The “solubility in G1/S (log2)” value in the data set on HeLa Kyoto [2] was -0.0397. In addition, the melting temperature was determined as 55.2 °C in the data set on HeLa Kyoto [3] (cell cycle stage: G1/S) and 56 °C with HeLa Kyoto [3] (cell cycle stage: mitosis). For the same substance, in the data set on HeLa Kyoto [4], the “solubility change mitosis (log2)” value was -0.232.
As for LSM3, the thermal stability score was -1.12 in the data set with HeLa Kyoto [1] (setting [5]) and -1.32 in the data set with HeLa Kyoto [1] (cell cycle stage: mitosis). In the data set with HeLa Kyoto [2], the “solubility in G1/S (log2)” value was determined as 0.0123. Moreover, the melting temperature is 55.4 °C in the data set on HeLa Kyoto [3] (cell cycle stage: G1/S) and 53.4 °C in the data set with HeLa Kyoto [3] (cell cycle stage: mitosis). In addition, the “solubility change mitosis (log2)” value with HeLa Kyoto [4] is 0.115.
For the substance “MSQVKSSYSYDAPSDFINFSSLDDEGDTQNIDSWFEEKANLENKLLGKNGTGGLFQGKTPLRKANLQQAIVTPLKPVDNTYYKEAEKENLVEQSIPSNACSSLEVEAAISRKTPAQPQRRSLRLSAQKDLEQKEKHHVKMKAKRCATPVIIDEILPSKKMKVSNNKKKPEEEGSAHQDTAEKNASSPEKAKGRHTVPCMPPAKQKFLKSTEEQELEKSMKMQQEVVEMRKKNEEFKKLALAGIGQPVKKSVSQVTKSVDFHFRTDERIKQHPKNQEEYKEVNFTSELRKHPSSPARVTKGCTIVKPFNLSQGKKRTFDETVSTYVPLAQQVEDFHKRTPNRYHLRSKKDDINLLPSKSSVTKICRDPQTPVLQTKHRARAVTCKSTAELEAEELEKLQQYKFKARELDPRILEGGPILPKKPPVKPPTEPIGFDLEIEKRIQERESKKKTEDEHFEFHSRPCPTKILEDVVGVPEKKVLPITVPKSPAFALKNRIRMPTKEDEEEDEPVVIKAQPVPHYGVPFKPQIPEARTVEICPFSFDSRDKERQLQKEKKIKELQKGEVPKFKALPLPHFDTINLPEKKVKNVTQIEPFCLETDRRGALKAQTWKHQLEEELRQQKEAACFKARPNTVISQEPFVPKKEKKSVAEGLSGSLVQEPFQLATEKRAKERQELEKRMAEVEAQKAQQLEEARLQEEEQKKEELARLRRELVHKANPIRKYQGLEIKSSDQPLTVPVSPKFSTRFHC [TPX2]”, the figures for the thermal stability score in the data set with HeLa Kyoto [1] (setting [5]) and in the data set on HeLa Kyoto [1] (cell cycle stage: mitosis) were -0.935 and -2.05, respectively. In addition, the “solubility in G1/S (log2)” value in the data set on HeLa Kyoto [2] was -0.167. The melting temperature in the data set with HeLa Kyoto [3] (cell cycle stage: G1/S) stood at 53.8 °C; in the data set with HeLa Kyoto [3] (cell cycle stage: mitosis), 53.1 °C. In the data set on HeLa Kyoto [4], the “solubility change mitosis (log2)” value is 0.425.
As for “MAVSESQLKKMVSKYKYRDLTVRETVNVITLYKDLKPVLDSYVFNDGSSRELMNLTGTIPVPYRGNTYNIPICLWLLDTYPYNPPICFVKPTSSMTIKTGKHVDANGKIYLPYLHEWKHPQSDLLGLIQVMIVVFGDEPPVFSRPISASYPPYQATGPPNTSYMPGMPGGISPYPSGYPPNPSGYPGCPYPPGGPYPATTSSQYPSQPPVTTVGPSRDGTISEDTIRASLISAVSDKLRWRMKEEMDRAQAELNALKRTEEDLKKGHQKLEEMVTRLDQEVAEVDKNIELLKKKDEELSSALEKMENQSENNDIDEVIIPTAPLYKQILNLYAEENAIEDTIFYLGEALRRGVIDLDVFLKHVRLLSRKQFQLRALMQKARKTAGLSDLY [TSG101]”, the thermal stability score in the data set on HeLa Kyoto [1] (setting [5]) was -0.385; in the data set on HeLa Kyoto [1] (cell cycle stage: mitosis), -0.589. Also, the “solubility in G1/S (log2)” value with HeLa Kyoto [2] amounted to 0.617. The melting temperature came out at 50.7 °C with HeLa Kyoto [3] (cell cycle stage: G1/S) and 50.2 °C in the data set with HeLa Kyoto [3] (cell cycle stage: mitosis). Moreover, the “solubility change mitosis (log2)” value with HeLa Kyoto [4] was -0.0618.
With “MDRMTEDALRLNLLKRSLDPADERDDVLAKRLKMEGHEAMERLKMLALLKRKDLANLEVPHELPTKQDGSGVKGYEEKLNGNLRPHGDNRTAGRPGKENINDEPVDMSARRSEPERGRLTPSPDIIVLSDNEASSPRSSSRMEERLKAANLEMFKGKGIEERQQLIKQLRDELRLEEARLVLLKKLRQSQLQKENVVQKTPVVQNAASIVQPSPAHVGQQGLSKLPSRPGAQGVEPQNLRTLQGHSVIRSATNTTLPHMLMSQRVIAPNPAQLQGQRGPPKPGLVRTTTPNMNPAINYQPQSSSSVPCQRTTSSAIYMNLASHIQPGTVNRVSSPLPSPSAMTDAANSQAAAKLALRKQLEKTLLEIPPPKPPAPLLHFLPSAANSEFIYMVGLEEVVQSVIDSQGKSCASLLRVEPFVCAQCRTDFTPHWKQEKNGKILCEQCMTSNQKKALKAEHTNRLKNAFVKALQQEQEIEQRLQQQAALSPTTAPAVSSVSKQETIMRHHTLRQAPQPQSSLQRGIPTSARSMLSNFAQAPQLSVPGGLLGMPGVNIAYLNTGIGGHKGPSLADRQREYLLDMIPPRSISQSISGQK [GATAD2B]”, the thermal stability score stood at 1.06 in the data set with HeLa Kyoto [1] (setting [5]) and 3.82 with HeLa Kyoto [1] (cell cycle stage: mitosis). For the same substance, the “solubility in G1/S (log2)” value with HeLa Kyoto [2] was found to be 0.413. Moreover, the melting temperature with HeLa Kyoto [3] (cell cycle stage: G1/S) came to 49 °C; in the data set on HeLa Kyoto [3] (cell cycle stage: mitosis), 50.6 °C. Further, the “solubility change mitosis (log2)” value in the data set with HeLa Kyoto [4] worked out at 0.158.
In the case of “MSELTKELMELVWGTKSSPGLSDTIFCRWTQGFVFSESEGSALEQFEGGPCAVIAPVQAFLLKKLLFSSEKSSWRDCSEEEQKELLCHTLCDILESACCDHSGSYCLVSWLRGKTTEETASISGSPAESSCQVEHSSALAVEELGFERFHALIQKRSFRSLPELKDAVLDQYSMWGNKFGVLLFLYSVLLTKGIENIKNEIEDASEPLIDPVYGHGSQSLINLLLTGHAVSNVWDGDRECSGMKLLGIHEQAAVGFLTLMEALRYCKVGSYLKSPKFPIWIVGSETHLTVFFAKDMALVAPEAPSEQARRVFQTYDPEDNGFIPDSLLEDVMKALDLVSDPEYINLMKNKLDPEGLGIILLGPFLQEFFPDQGSSGPESFTVYHYNGLKQSNYNEKVMYVEGTAVVMGFEDPMLQTDDTPIKRCLQTKWPYIELLWTTDRSPSLN [FAM188A]”, the thermal stability score in the data set with HeLa Kyoto [1] (setting [5]) is -0.555; with HeLa Kyoto [1] (cell cycle stage: mitosis), -1.31. Further, in the data set with HeLa Kyoto [2], the “solubility in G1/S (log2)” value came to 0.00352. In addition, in the data set with HeLa Kyoto [3] (cell cycle stage: mitosis), the melting temperature turned out to be 52.9 °C. Further, in the data set on HeLa Kyoto [4], the “solubility change mitosis (log2)” value is -0.147.
